# Laboratory results: US20200277373A1, “ANTI-TREM2 ANTIBODIES AND METHODS OF USE THEREOF” (Denali Therapeutics Inc., priority 2017, published 2020)
# Where a chain is given by its changes, count along the chain named.
# T1: hTREM2 (Homo sapiens, UniProt Q9NZC2)
# T1 construct: The ecto domain (residues 19-172) of TREM2 (UniProtKB—Q9NZC2); secretion signal of mouse Ig kappa chain V-III (P01661 aa 1-20) (N); made in house; host or cells: Expi293F
# T1 sequence (Q9NZC2 19-172): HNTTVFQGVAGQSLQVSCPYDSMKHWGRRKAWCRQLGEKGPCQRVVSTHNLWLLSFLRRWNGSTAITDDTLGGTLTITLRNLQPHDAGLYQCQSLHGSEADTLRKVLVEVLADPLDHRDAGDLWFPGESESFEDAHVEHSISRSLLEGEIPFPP
# T2: TREM2 (Homo sapiens, UniProt Q9NZC2)
# T2 construct: macrophage cells that endogenously express TREM2; endogenous in cells; host or cells: primary human monocyte-derived macrophages from donor blood
# T2 sequence (Q9NZC2 19-230): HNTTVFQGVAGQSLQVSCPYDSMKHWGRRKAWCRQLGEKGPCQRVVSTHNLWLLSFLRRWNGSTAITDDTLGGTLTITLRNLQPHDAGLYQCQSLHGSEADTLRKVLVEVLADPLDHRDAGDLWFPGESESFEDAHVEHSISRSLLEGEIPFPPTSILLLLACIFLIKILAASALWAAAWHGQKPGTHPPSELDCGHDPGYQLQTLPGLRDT
# B1: 42E8.H1: anti-TREM2 antibody clone; VH SEQ ID NO:20, VL SEQ ID NO:31 (antibody, V domains shown)
# VH: DVQLQESGPGLVKPSQSLSLTCTVTGYSITSDYAWNWIRQFPGNKLEWMGYINYSGRTIYNPSLKSRISITRDTSKNHFFLQLISVTTEDTATYYCARWNGNYGFAYWGQGTLVTVSA
# VL: DVVMTQNPLSLPVSLGDQASISCRSSQSLVHINGNTYLHWYLQKPGQSPKLLIYKVSNRFSGVPDRFSGSGSGTDFTLKISRVEAEDLGVYFCSQTTHALFTFGSGTKLEIK
# B2: 49H11.B1: anti-TREM2 antibody clone; VH SEQ ID NO:21, VL SEQ ID NO:32 (antibody, V domains shown)
# VH: B1 VH with K45R, N53S, Y54F, R57S, I59S, H78Q, I84N
# VL: B1 VL with N7T, T96S, A99V, L100T
# B3: 26E2.A3: anti-TREM2 antibody clone; VH SEQ ID NO:17, VL SEQ ID NO:28 (antibody, V domains shown)
# VH: QVHLQQSGSELRSPGSSVKLSCKDFDSEVFPISYMSWIRQKPGHGFEWIGDILPSIGGRIYGVKFEDRATLDADTVSNTAYLELNSLTSEDSAIYYCARKDYGSLAYWGQGTLVTVSA
# VL: B1 VL with N7T, H39Q, Y41F, D75A, T96S, A99V, L100P, F101Y, S105G
# B4: RS9.F10: anti-TREM2 antibody clone; likely VH SEQ ID NO:6, VL SEQ ID NO:7 (antibody, V domains shown)
# VH: QVQLQQPGAELVKPGASVKLSCKASGYTFTSYWMHWVKQSPGRGLEWIGRSDPTTGGTNYNEKFKTKATLTVDKPSSTAYMQLSSLTSDDSAVYYCVRTSGTGDYWGQGTSLTVSSAKTTAPSVYPLAPVCGGTTGSSVT
# VL: DVVMTQTPLSLPVSLGDQASISCRSSQSLVHNNGNTFLHWYLQKPGQSPKLLIYKVSNRFSGVPDRFSGSGSGTDFTLKISRVEAEDLGVYFCSQTTHVPPTFGGGTKLEIKRADAAPTVSIFPPSSEQLTSGGASVVCF
# B5: 7B10.A2: anti-TREM2 antibody clone; VH SEQ ID NO:306, VL SEQ ID NO:310 (antibody, V domains shown)
# VH: EVQLQQSGPELVKPGASVKMSCKASGYTFTDYNMHWVKQSHGKSLEWIGYINPNNGGTTYNQKFKGKATLTVNKSSSTAYMELRSLTSEDSAVYYCATYNNHYFDSWGQGTTLTVSS
# VL: DIQMTQTTSSLSASLGDRVTISCSASQGISNYLNWYQQKPDGTVKLLIYYTSNLHSGVPSRFSGSGSGTDYSLTISNLEPEDIATYYCQQYSNLPYTFGGGTKLEIK
# B6: 26D2.D1: anti-TREM2 antibody clone; VH SEQ ID NO:16, VL SEQ ID NO:27 (antibody, V domains shown)
# VH: EVQLQQSGPELVKPGASVKMSCKASGYTFTSYVMHWVKQKPGQGLEWIGYINPYTDGTKYNEKFKGKATLTSDKSSSTAYMDLSSLTSEDSAVYYCARGEVRRYALDYWGQGTSVTVSS
# VL: DIQMTQSSSSFSVSLGDRVTITCKASEDIYNRLAWYQQKPGNAPRLLISGATSLETGVPSRFSGSGSGKDYTLSITSLQTEDVATYYCQQYWSTPWTFGGGTKLEIK
# Tests used:
# soluble TREM2 (sTREM2) = biological target: T3, soluble TREM2 (sTREM2) (Homo sapiens, UniProt Q9NZC2); assay: Soluble TREM2 (TREM2 shedding) assay in HEK293 TREM2/DAP12 cells; format: cell-based; set-up: key to STREM2: NC = no change; −− = reduced sTREM2; ++ = increased sTREM2; conditions: for STREM2: change in sTREM2 levels
# T3 construct: expressed in transfected cells
# Procedure: HEK293 cells stably expressing human TREM2 and DAP12 were plated onto 96-well plates pre-coated with poly-D-lysine 4-16 hours prior to antibody treatment. Antibody supernatants or control antibodies were diluted into fresh complete media and added onto cells in triplicate. Cells were incubated with antibody containing media for 18 hours prior to removal of the cell supernatant for assay by TREM2 ELISA. Samples and standards were diluted 1:10 into blocking buffer (3% BSA/TBST) in the assay plate. Briefly, MSD small spot streptavidin plates were coated with biotinylated anti-hTREM2 polyclonal antibody (R&D Systems) overnight at 4° C. or 1 hour at room temperature. Plates were then blocked overnight at 4° C., or 1 hour at room temperature, with blocking buffer, 3% BSA/TBST. Plates were washed three times with TBST in a Biotek plate washer (used for all washes) prior to addition of diluent (blocking buffer) and denatured supernatants from cell culture. A TREM2-His protein diluted in 3% BSA/TBST was used as a standard for absolute quantification. Following 1 hour incubation at room temperature, plates were washed with TBST. The primary detection antibody, sulfo-tagged goat anti-human TREM2 (R&D Systems), diluted in 3% BSA/TBST was added and incubated for 1 hour at room temperature. After washing with TBST, MSD plates were developed using 2×MSD read buffer T, followed by detection using an MSD Sector plate reader. MSD values were converted to absolute quantities of sTREM2 by fitting a standard curve using Prism 7.0 software (Graphpad). Modulation of TREM2 shedding was represented as a ratio to cells cultured with no specific TREM2 antibody in the media.
# TREM2 [1] = biological target: T4, TREM2 (Homo sapiens, UniProt Q9NZC2); assay: FACS binning on human TREM2-HEK cells (competition with R&D antibody); format: binding; conditions: epitope bin, 100 nM antibody
# T4 construct: expressed in transfected cells
# Procedure: HEK293 overexpressing human TREM2 (H6) were harvested by 0.05% trypsin and incubated at 37° C. incubator for 2 hours for surface TREM2 recovery. After incubation, cells were washed with 1×PBS and FACS buffer (PBS+0.5% BSA) with human Trustain FcX solution (Biolegend, Cat #422302) was added at a density of 10^6/mL. Cells were seeded at 100,000 cells per well in a 96-well round-bottom and incubated 20 minutes at room temperature. After incubation, anti-TREM2 antibodies (100 nM) were added to the cells and the cells were incubated for 45 minutes on ice. After incubation, rat anti-h/mTREM2-APC antibody (1:100, R&D, Cat # FAB17291A) was added to the cells, and the cells were incubated for 30 minutes on ice. After incubation, cells were washed with FACS buffer three times and resuspended in 10 μL FACS buffer, then analyzed by flow cytometry (BD FACSCanto II, San Jose, Calif.). 20,000 events were obtained for each sample. The ability to compete with R&D antibody was determined by MFI analysis compared to isotype or buffer control wells.
# T4 sequence (O43914 22-113 partner, one chain of several): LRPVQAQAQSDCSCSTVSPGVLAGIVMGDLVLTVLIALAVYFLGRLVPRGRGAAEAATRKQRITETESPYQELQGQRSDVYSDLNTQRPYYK
# hTREM2 = biological target: T1, hTREM2; assay: Octet binning (competition with R&D antibody on biotinylated TREM2-His); format: binding; conditions: epitope bin, 100 nM
# Procedure: Competition with R&D antibody was done by Octet Red using biotinylated human Trem2-His protein generated in house. Biotinylated human TREM2-His protein was captured on a streptavidin tip, and the tip was then incubated in either 100 nM of R&D Ab or buffer for 3 minutes, followed by incubation for 3 minutes in 100 nM of testing hybridoma. The difference of hybridoma binding curve with or without pre-binding to R&D antibody was analyzed to determine the epitope.
# TREM2 [2] = biological target: T2, TREM2; assay: TREM2 pSyk antagonist assay on human macrophages (antibody pre-incubation, then liposomes); format: cell-based; conditions: FIGS. 9C-9D, 30 nM antibody
# Procedure: (§1) Human macrophages were differentiated from donor blood using a human monocyte enrichment cocktail (Stem Cell Technologies) and culturing monocytes with human mCSF for five days in macrophage media (RPMI+10% Hyclone FBS+Glutamax+Pen/Strep+non-essential amino acids+sodium pyruvate). On the fifth day, the human macrophages were scraped from the flasks and were re-plated at 100,000 cells/well on a 96-well poly-D-lysine-coated plate in the macrophage media (without mCSF). The cells were incubated for 24 hours to adhere, then the media was removed.
# Antibodies diluted in RPMI alone were immediately added to the cells, and allowed to incubate for 30 minutes at 37° C. The antibodies were then removed. Lipid vesicles comprised of 70% DOPC and 30% POPS (made according to the procedure for making vesicles described above) in HBSS were added to the cells and incubated […] at 37° C. The liposome/antibody solution was removed, and 35 μL lysis buffer (Cell Signaling Technologies, CST) was added using the liquid handler. The lysate was then incubated at 4° C. for 30 minutes, then either frozen at −80° C. or immediately carried forward to a pSyk AlphaLISA assay as described above.
# TREM2 [3] = biological target: T2, TREM2; assay: TREM2 PAM/pSyk assay on human macrophages; format: cell-based
# Procedure: as §1
# Antibodies pre-mixed with lipid vesicles comprised of 70% DOPC and 30% POPS (made according to the procedure for making vesicles described above) diluted in HBSS were immediately added to the cells, and allowed to incubate for 5 minutes at 37° C. The liposome/antibody solution was removed, and 35 μL lysis buffer (Cell Signaling Technologies, CST) was added using the liquid handler. The lysate was then incubated at 4° C. for 30 minutes, then either frozen at −80° C. or immediately carried forward to a pSyk AlphaLISA assay as described above. […] The results of the assay are shown in FIG. 9B and in Table 8 below.
# T3 sequence (O43914 22-113 partner, one chain of several): as above
molecule,measurement,setting,value
B1,TREM2 shedding (in words),"soluble TREM2 (sTREM2); FIG. 4, 18 hours",blocks TREM2 shedding
same,STREM2,soluble TREM2 (sTREM2),−−
same,Bin by FACS,TREM2 [1],1
same,Bin by Octet,hTREM2,1
B2,Bin by FACS,TREM2 [1],1
same,Bin by Octet,hTREM2,1
B3,liposome mediated pSyk signaling after antibody pre-incubation,TREM2 [2],enhanced
B4,STREM2,soluble TREM2 (sTREM2),NC
B5,effect on lipid ligand activation of TREM2 (in words),"TREM2 [3]; FIG. 9B, human macrophages",synergistic with lipid TREM2 activators
same,Slope + Liposome,"TREM2 [3]; pSyk, 10 nM antibody with 0, EC20, EC50, EC80 PS/PC liposomes, liposome-alone signal subtracted","5,370"
B6,STREM2,soluble TREM2 (sTREM2),NC
same,Bin by FACS,TREM2 [1],3
same,Bin by Octet,hTREM2,1-2
same,liposome mediated pSyk signaling after antibody pre-incubation,TREM2 [2],blocked
